# Data from US6800738.
# B1: huMAb4D5-2 (antibody, name in Kabat numbering, V domains shown)
# VH: EVQLVESGGGLVQPGGSLRLSCAASGFNIKDTYIHWVRQAPGKGLEWVARIYPTNGYTRYADSVKGRFTISADDSKNTLYLQMNSLRAEDTAVYYCARWGGDGFYAMDVWGQGTLVTVSS
# VL: not shown
# What was measured:
# [1] = target: T1, p185^HER2 ECD (secreted form of the extracellular domain of p185^HER2) (human, UniProt P04626 23-652); assay: solution equilibrium with p185HER2 ECD, free antibody by ELISA on immobilized ECD (Friguet method)
# T1 construct: extracellular domain; also called HER2 extracellular domain
# [2] = target: p185^HER2 on cells (SK-BR-3 human breast tumor cells; WI-38 cells) (human, UniProt P04626 23-1255); assay: cell-based or functional assay
# [3] = target: T1, p185^HER2 ECD (secreted form of the …); assay: ratio of Kd values, solution equilibrium/ELISA
binder,measurement,setting,value
B1,Kd,[1],4.7 nM
same,"Relative cell proliferation of SK-BR-3 cells, 96 hr, 8 ug/ml antibody",[2],101 % of untreated control
same,fold increase in affinity over huMAb4D5-1,[3],5 fold
